Assay [1] deals with T1, HA ectodomain of A/California/04/2009 (H1N1), recombinant (Influenza A virus A/California/04/2009 …, strain).
T1 construct: source: baculovirus (pAcGP67B), H5 insect cells, supernatant purified with Ni-NTA
Kind of assay: SEC. To be noted: both partners purified.

The target of assay [2] is T2, HAhr^CA (head region of CA4/2009 HA, degraded HA monomer in the crystal) (Influenza A virus A/California/04/2009 …, strain).
T2 chain: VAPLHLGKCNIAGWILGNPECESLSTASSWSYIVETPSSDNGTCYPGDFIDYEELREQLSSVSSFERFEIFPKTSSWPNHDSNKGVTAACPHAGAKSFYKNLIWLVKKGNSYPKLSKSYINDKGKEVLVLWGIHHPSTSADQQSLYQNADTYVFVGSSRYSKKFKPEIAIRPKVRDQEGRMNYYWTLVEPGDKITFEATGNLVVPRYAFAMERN
The experiment in a line: crystal structure. To be noted: both partners purified.

B1: 12H5 Fab (mouse antibody) (Fab, V domains shown)
VH: QIQLVQSGPELKKPGETVRISCKASGYTFTKNGMNWVQQAPGKGLKWVGWINTYTGEPSYADDFKGRFAFSLETSASTAYLQINNLKNEDMAAYFCARMVRDAMDFWGQGTSVTVSS
VL: DIVLTQSPASLAVSLGQRATISCKASQSVDFDGYNYLNWYQQKPGQPPKLLIYAASNLESGIPARFSGSGSGTDFTLNIHPVEEEDAATYFCQQSNEDPYTFGGGTKLEIK
notes: source: papain digestion of mAb 12H5 (mouse ascites, protein A), purified with DEAE-5PW
B1: the binding result in assay [1] and in assay [2] was “binds” throughout.

Source of the values: PMC9439264 (Nature Communications, 2022).
